From PMC10759225

Target: TAX peptide, a peptide of the human T-cell leukemia virus type I peptide on HLA-A2 (human)
Test: data from Cole et al. (2013); the method is not told in this article; the reference is the unmutated A6-TCR

With “A6-TCR with mutated CDR3 beta loop (PDB 4FTV)” the fold enhancement of binding over the parent A6-TCR was 1000 fold.
